Data on 11 molecules can be found in patent US9873883B2, “Glyphosate resistant plants and associated methods” (Dow AgroSciences LLC, priority 2012, dated 2018).

The labels stand for the following.
B1: Brassica napus (canola) EPSP synthase DGT-3 (GENBANK P17688) variant DGT-3 v6 (G→A) (Brassica napus; G173A) (protein)
chain: KASEIVLQPIREISGLIKLPGSKSLSNRILLLAALSEGTTVVDNLLNSDDINYMLDALKKLGLNVERDSVNNRAVVEGCGGIFPASLDSKSDIELYLGNAATAMRPLTAAVTAAGGNASYVLDGVPRMRERPIGDLVVGLKQLGADVECTLGTNCPPVRVNANGGLPGGKVKLSGSISSQYLTALLMAAPLALGDVEIEIIDKLISVPYVEMTLKLMERFGVSAEHSDSWDRFFVKGGQKYKSPGNAYVEGDASSASYFLAGAAITGETVTVEGCGTTSLQGDVKFAEVLEKMGCKVSWTENSVTVTGPSRDAFGMRHLRAVDVNMNKMPDVAMTLAVVALFADGPTTIRDVASWRVKETERMIAICTELRKLGATVEEGSDYCVITPPAKVKPAEIDTYDDHRMAMAFSLAACADVPVTIKDPGCTRKTFPDYFQVLESITKH
notes: made in house; host or cells: E. coli Rosetta2 (DE3)
B2: Brassica napus (canola) EPSP synthase DGT-3 (GENBANK P17688) variant DGT-3 v7 (G→A, P→S; GAPS) (Brassica napus; G173A/P178S) (protein)
chain: KASEIVLQPIREISGLIKLPGSKSLSNRILLLAALSEGTTVVDNLLNSDDINYMLDALKKLGLNVERDSVNNRAVVEGCGGIFPASLDSKSDIELYLGNAATAMRSLTAAVTAAGGNASYVLDGVPRMRERPIGDLVVGLKQLGADVECTLGTNCPPVRVNANGGLPGGKVKLSGSISSQYLTALLMAAPLALGDVEIEIIDKLISVPYVEMTLKLMERFGVSAEHSDSWDRFFVKGGQKYKSPGNAYVEGDASSASYFLAGAAITGETVTVEGCGTTSLQGDVKFAEVLEKMGCKVSWTENSVTVTGPSRDAFGMRHLRAVDVNMNKMPDVAMTLAVVALFADGPTTIRDVASWRVKETERMIAICTELRKLGATVEEGSDYCVITPPAKVKPAEIDTYDDHRMAMAFSLAACADVPVTIKDPGCTRKTFPDYFQVLESITKH
notes: as for B1
B3: Brassica napus (canola) EPSP synthase DGT-3 (GENBANK P17688) variant DGT-3 v8 (T→I, P→S; TIPS) (Brassica napus; P178S/T174I) (protein)
chain: KASEIVLQPIREISGLIKLPGSKSLSNRILLLAALSEGTTVVDNLLNSDDINYMLDALKKLGLNVERDSVNNRAVVEGCGGIFPASLDSKSDIELYLGNAGIAMRSLTAAVTAAGGNASYVLDGVPRMRERPIGDLVVGLKQLGADVECTLGTNCPPVRVNANGGLPGGKVKLSGSISSQYLTALLMAAPLALGDVEIEIIDKLISVPYVEMTLKLMERFGVSAEHSDSWDRFFVKGGQKYKSPGNAYVEGDASSASYFLAGAAITGETVTVEGCGTTSLQGDVKFAEVLEKMGCKVSWTENSVTVTGPSRDAFGMRHLRAVDVNMNKMPDVAMTLAVVALFADGPTTIRDVASWRVKETERMIAICTELRKLGATVEEGSDYCVITPPAKVKPAEIDTYDDHRMAMAFSLAACADVPVTIKDPGCTRKTFPDYFQVLESITKH
notes: as for B1
B4: Glycine max (soybean) EPSP synthase DGT-1 variant DGT-1 v6 (G→A) (Glycine max; G182A) (protein)
chain: MASVAAAEKPSTSPEIVLEPIKDFSGTITLPGSKSLSNRILLLAALSEGTTVVDNLLYSEDIHYMLGALRTLGLRVEDDKTTKQAIVEGCGGLFPTSKESKDEINLFLGNAATAMRPLTAAVVAAGGNASYVLDGVPRMRERPIGDLVAGLKQLGADVDCFLGTNCPPVRVNGKGGLPGGKVKLSGSVSSQYLTALLMAAPLALGDVEIEIVDKLISVPYVEMTLKLMERFGVSVEHSGNWDRFLVHGGQKYKSPGNAFVEGDASSASYLLAGAAITGGTITVNGCGTSSLQGDVKFAEVLEKMGAKVTWSENSVTVSGPPRDFSGRKVLRGIDVNMNKMPDVAMTLAVVALFANGPTAIRDVASWRVKETERMIAICTELRKLGATVEEGPDYCVITPPEKLNVTAIDTYDDHRMAMAFSLAACGDVPVTIKDPGCTRKTFPDYFEVLERLTKH
B5: Glycine max (soybean) EPSP synthase DGT-1 variant DGT-1 v8 (T→I, P→S; TIPS) (Glycine max; P187S/T183I) (protein)
chain: MASVAAAEKPSTSPEIVLEPIKDFSGTITLPGSKSLSNRILLLAALSEGTTVVDNLLYSEDIHYMLGALRTLGLRVEDDKTTKQAIVEGCGGLFPTSKESKDEINLFLGNAGIAMRSLTAAVVAAGGNASYVLDGVPRMRERPIGDLVAGLKQLGADVDCFLGTNCPPVRVNGKGGLPGGKVKLSGSVSSQYLTALLMAAPLALGDVEIEIVDKLISVPYVEMTLKLMERFGVSVEHSGNWDRFLVHGGQKYKSPGNAFVEGDASSASYLLAGAAITGGTITVNGCGTSSLQGDVKFAEVLEKMGAKVTWSENSVTVSGPPRDFSGRKVLRGIDVNMNKMPDVAMTLAVVALFANGPTAIRDVASWRVKETERMIAICTELRKLGATVEEGPDYCVITPPEKLNVTAIDTYDDHRMAMAFSLAACGDVPVTIKDPGCTRKTFPDYFEVLERLTKH
B6: Glycine max (soybean) EPSP synthase DGT-1 variant DGT-1 v7 (G→A, P→S; GAPS) (Glycine max; G182A/P187S) (protein)
chain: MASVAAAEKPSTSPEIVLEPIKDFSGTITLPGSKSLSNRILLLAALSEGTTVVDNLLYSEDIHYMLGALRTLGLRVEDDKTTKQAIVEGCGGLFPTSKESKDEINLFLGNAATAMRSLTAAVVAAGGNASYVLDGVPRMRERPIGDLVAGLKQLGADVDCFLGTNCPPVRVNGKGGLPGGKVKLSGSVSSQYLTALLMAAPLALGDVEIEIVDKLISVPYVEMTLKLMERFGVSVEHSGNWDRFLVHGGQKYKSPGNAFVEGDASSASYLLAGAAITGGTITVNGCGTSSLQGDVKFAEVLEKMGAKVTWSENSVTVSGPPRDFSGRKVLRGIDVNMNKMPDVAMTLAVVALFANGPTAIRDVASWRVKETERMIAICTELRKLGATVEEGPDYCVITPPEKLNVTAIDTYDDHRMAMAFSLAACGDVPVTIKDPGCTRKTFPDYFEVLERLTKH

For the first series, the system named is C=C(OP(=O)(O)O)C(=O)O. The experiment in a line: purified protein, by the assay type. The conditions noted are these: other: pH 7.5, 1 mM S3P.
What is called Km is the concentration of substrate that gives half-maximal velocity. As for “Mariprofundus ferrooxydans EPSP synthase DGT-14 v1, native wild type (GENBANK ZP_01452683; SEQ ID NO:17) (Mariprofundus ferrooxydans PV-1)”, the Km was 208.6 µM.

What is called kcat/Km is the turnover number divided by the Michaelis constant. For the molecule “bacterial EPSP synthase DGT-11 v6, native (GENBANK YP_989551.1), SEQ ID NO:5 (Bartonella bacilliformis INS)”, the Km was determined as 1576.6 µM and the kcat/Km came out at 50 M⁻¹ s⁻¹.

Consider “bacterial EPSP synthase DGT-18 (GENBANK NP_928909.1) variant DGT-18 v6 (G→A at residue 96), SEQ ID NO:9 (Photorhabdus laumondii subsp. laumondii TTO1; G96A)”, for which the Km was 375.9 µM and the kcat/Km is 40000 M⁻¹ s⁻¹.

As to “bacterial EPSP synthase DGT-29 (GENBANK YP_322772.1) variant DGT-29 v6 (G→A at residue 96), SEQ ID NO:11 (Trichormus variabilis ATCC 29413; G96A)”, the Km came out at 1502.2 µM and the kcat/Km worked out at 4000 M⁻¹ s⁻¹.

On to “bacterial EPSP synthase DGT-30 (GENBANK ZP_02156189.1) variant DGT-30 v6 (G→A at residue 96), SEQ ID NO:13 (Shewanella benthica KT99; G96A)”, for which the Km stood at 414.9 µM and the kcat/Km came out at 30000 M⁻¹ s⁻¹.

Substrate in the next series: C=C(OP(=O)(O)O)C(=O)O
The experiment in a line: In vitro kinetic assay (inorganic phosphate production, malachite green). It is filed as biochemical, Brassica napus. The settings on record: other: pH 7.5, 1 mM S3P. From the text:
(§1) The following Class I enzymes: DGT-1 from Glycine max, DGT-3 from Brassica napus (GENBANK ACC NO: P17688), and DGT-7 from Triticum aestivum (GENBANK ACC NO: EU977181) were used as a comparison. The Class I EPSP synthase enzymes and mutant variants thereof were synthesized and evaluated. A mutation introduced into the plant EPSP synthase enzymes consisted of the Glycine to Alanine mutation made within the EPSP synthase enzyme at a similar location as that of the G96A mutation from the E. coli version of the enzyme. In addition, Threonine to Isoleucine and Proline to Serine mutations were introduced within these Class I EPSP synthase enzymes at analogous positions as that of amino acid 97 (T to I) and amino acid 101 (P to S) in the EPSP synthase of E. coli as described in Funke et al., (2009).
(§2) The location of the amino acid residue which was mutated from glycine to alanine is indicated by the first asterisk. The location of the amino acid residue which was mutated from threonine to isoleucine is indicated by the second asterisk. The location of the third amino acid residue which was mutated from proline to serine is indicated by the third asterisk. These mutations were introduced into different versions of DGT-1, DGT-3, and DGT-7. The different versions of the genes which contain the mutations are described in more detail below.
(§3) Additional constructs containing the dgt-1, dgt-3 and dgt-7 were synthesized. These constructs were used for in vitro testing of the dgt-1 v5, dgt-1 v6, dgt-1 v7, dgt-1 v8, dgt-3 v6, dgt-3 v7, dgt-3 v8, dgt-7 v5, dgt-7 v6, dgt-7 v7, and dgt-7 v8 gene sequences were outsourced to GeneArt for synthesis and cloning. The synthesized genes were cloned into the pET28 expression vector. The resulting constructions were labeled as pDAB102028 containing dgt-1 v5, pDAB102029 containing dgt-1 v6, pDAB102032 containing dgt-1 v7, pDAB102034 containing dgt-1 v8, pDAB100429 containing dgt-3 v6, pDAB100442 containing dgt-3 v7, pDAB100430 containing dgt-3 v8, pDAB102036 containing dgt-7 v5, pDAB102038 containing dgt-7 v6, pDAB102040 containing dgt-7 v7, and pDAB102042 containing dgt-7 v8.
(§4) Recombinant DGT proteins were overexpressed in Rosetta2™ (DE3) cells (Novagen, Madison, Wis.) from the constructs described above. A single colony was used to inoculate 50 mL starter cultures of LB containing chloramphenicol (25 μg/mL) and kanamycin (50 μg/mL) which were cultivated overnight at 37° C. The overnight cultures were used to inoculate 1 L of LB containing chloramphenicol (25 μg/mL) and kanamycin (50 μg/mL). The cultures were grown at 37° C. to an O.D.600=0.6 then placed in an ice water bath for 10 minutes. Expression of the target proteins was achieved by addition of IPTG to a final concentration of 500 μM. Induction was allowed to proceed overnight at 20° C. followed by harvesting via centrifugation at 8,000 rpm for 20 minutes. The cell pellets were stored at −80° C. until required for purification. All purification steps were carried out at 4° C.
(§5) Cell pellets from 1 L cultures were resuspended in 20-30 mL Buffer A (50 mM HEPES pH 7.5, 150 mM KCl, 2 mM DTT, 1 mM EDTA, 20 mM imidazole, and 5% glycerol). COMPLETE™ protease inhibitor cocktail (1 tablet/50 mL, Roche, Indianapolis, Ind.) and lysozyme (1 mg/mL, Sigma-Aldrich, St. Louis, Mo.) were then added and the suspension was stirred for 20 minutes. Cell lysis was performed using a Branson Sonifier 250 (3×60 second bursts) followed by removal of the cell debris by centrifugation at 16,000 rpm for 45 minutes. […]
As for B1, the Km is 1073.4 µM and the kcat/Km is 13900 M⁻¹ s⁻¹.

In the case of B2, the Km came out at 2728.3 µM and the kcat/Km was found to be 2280 M⁻¹ s⁻¹.

For the molecule B3, the Km was 196.8 µM.

Substrate in another series: C=C(OP(=O)(O)O)C(=O)O
The series is described as above. The format is biochemical, Glycine max. The settings on record: other: pH 7.5, 1 mM S3P. This is another data set of the same source.
Text: as §1, §2, §3, §4, §5
Take B4: the Km was found to be 608.2 µM and the kcat/Km was determined as 13400 M⁻¹ s⁻¹.

Turning to B5, the Km came to 151.4 µM.

Consider B6, for which the Km came out at 1291.2 µM and the kcat/Km was 6670 M⁻¹ s⁻¹.
